Entries after “also recorded” stand apart in the source; their conditions may differ.
How the values were obtained:
FGFR3c ectodomain = biological target: T1, FGFR3c ectodomain (Homo sapiens, UniProt P22607); experiment: ITC of FGF binding to FGFR3c ectodomain; settings: for Kd: read-out: affinity for FGFR3c ectodomain
T1 sequence (P22607 23-375 limits assumed): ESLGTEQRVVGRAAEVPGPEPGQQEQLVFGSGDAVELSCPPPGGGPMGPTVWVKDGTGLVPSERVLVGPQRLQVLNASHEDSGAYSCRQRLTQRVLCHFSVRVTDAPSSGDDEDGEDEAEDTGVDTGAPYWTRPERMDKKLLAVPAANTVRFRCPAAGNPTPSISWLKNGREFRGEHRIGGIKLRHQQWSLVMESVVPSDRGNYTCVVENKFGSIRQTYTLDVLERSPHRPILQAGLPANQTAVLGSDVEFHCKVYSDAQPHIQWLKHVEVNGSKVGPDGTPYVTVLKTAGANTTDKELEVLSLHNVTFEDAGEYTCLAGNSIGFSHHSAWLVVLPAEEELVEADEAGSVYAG

wildtype mouse hearts = experiment: Ex vivo model, low-flow ischemia and reperfusion; settings: 10 μg immediately at reperfusion; 60 minutes low-flow ischemia, 60 minutes reperfusion
Source text: FIGS. 12A-12B. […] Left bar is vehicle-treated and right bar is FGF2-treated wildtype mouse hearts.

[1] = Pharmacokinetic evaluation after intraperitoneal dose (serum ELISA); format: in vivo, rat; settings: single intraperitoneal dose 0.5 mg/kg
Experimental: CVR-2016-799R1 signaling and the other two sets were to evaluate the pharmacokinetic properties of native FGF1 and modified FGF1 (FGF1^ΔHBS). The first set of experiments was for the ischemia/reperfusion study in which animals were divided into six groups as follows: (1) saline group: saline treatment given intravenously for 10 minutes immediately upon reperfusion, (2) heparin group: heparin, 60 U/kg intravenous (i.v.) bolus, given immediately at reperfusion+12 U/kg/hr i.v. infusion for 120 minutes of reperfusion, (3) FGF1 group: FGF1, 10 μg/kg i.v. infusion, given for 10 minutes immediately at reperfusion, (4) FGF1+heparin: heparin, 60 U/kg bolus, given immediately upon reperfusion followed by FGF1, 10 μg/kg i.v. infusion, given for 10 minutes and 12 U/kg/hr i.v. infusion given for 110 minutes of reperfusion, (5) modified FGF1 (FGF1^ΔHBS) group: FGF1^ΔHBS, 10 μg/kg i.v. infusion, given for 10 minutes, or (6) FGF1^ΔHBS+heparin: heparin, 60 U/kg bolus, given immediately at reperfusion followed by FGF1^ΔHBS, 10 μg/kg i.v. infusion, given for 10 minutes and 12 U/kg/hr i.v. infusion for 110 minutes of reperfusion. All rats were subjected to 30 minutes of regional ischemia and 120 minutes of reperfusion. Drugs were administered at the onset of reperfusion via the jugular vein (FIG. 2A). […] A total of ninety-six rats was completed for the I/R study. Sample size for each group ranged from 9-16 depending on the power analysis. A total of thirty-five rats were excluded from the study based on the lack of cyanosis of the heart or typical elevation of the ST segment in the electrocardiogram during ischemia, and death from malignant arrhythmia. For the biodistribution or FGF1 signaling study, rats were randomly divided into six groups as described above (FIG. 2B). Following drug treatment (immediately following 15 minutes of treatment or 105 minutes post-treatment at the point which mimics the length of time of reperfusion), solid organs and blood (see sections “Tissue collection for exogenous FGF1 biodistribution” and “Cardiac preparation to detect the activation of FGF1 downstream molecules”) were collected. A total of 33 rats were used for biodistribution and FGF1 signaling studies, and 3 rats were excluded due to anesthetic overdose. Also, a total of 8 plasma samples were excluded because of hemolysis. For elimination half-life of native FGF1 and FGF1^ΔHBS, 12 rats were randomly divided into two groups and treated intraperitoneally with either FGF1 form as described in the section “Pharmacokinetic evaluation of exogenous FGF1 or FGF1^ΔHBS ”.
The in vivo half-life of FGF1 or FGF^ΔHBS (given as a single, intraperitoneal dose of
0.5 mg/kg body weight) was assessed, using the human FGF1 immunoassay ELISA kit (R&D System, MN), from blood (i.e., serum) collected at varying times as described previously. The pharmacokinetic parameters of FGF1 or FGF1^ΔHBS were analyzed using the Drug and […]

FGF1: native recombinant human fibroblast growth factor 1
Kd (FGFR3c ectodomain): 704 nM | contractile function (+dP/dt) compared to vehicle (in words) (wildtype mouse hearts): significant enhancement of contractile function | infarct size compared to vehicle (in words) (wildtype mouse hearts): significant reduction in infarct size

B1: FGF1^ΔHBS: FGF1 mutant carrying the K127D/K128Q/K133V triple mutation in its HS-binding region; reduced heparin-binding affinity (protein)
chain: MAEGEITTFTALTEKFNLPPGNYKKPKLLYCSNGGHFLRILPDGTVDGTRDRSDQHIQLQLSAESVGEVYIKSTETGQYLAMDTDGLLYGSQTPNEECLFLERLEENHYNTYISKKHAEKNWFVGLDQNGSCVRGPRTHYGQKAILFLPLPVSSD
FGFR (receptor) binding affinity (in words) (FGFR3c ectodomain; FGFR3c ectodomain): retains normal receptor binding affinity | Kd (FGFR3c ectodomain): 432 nM | absorption phase half-life (in words) ([1]; non-compartmental): not significantly different from FGF1 | elimination phase half-life (in words) ([1]; non-compartmental, 0.5 mg/kg): not significantly different from FGF1 | area-under-curve (AUC), fold greater than FGF1 ([1]; serum): 2 fold | maximum serum concentration (Cmax), fold greater than FGF1 ([1]; serum): 4 fold | time to reach maximum serum concentration (Tmax) (in words) ([1]; 0.5 mg/kg): reached earlier than with FGF1; also recorded: relatively fast

— patent publication US20200384079A1, “Compositions of Fibroblast Growth Factor LIgands and Methods of Treating Patients Undergoing Ischemia-Reperfusion Therapy” (University of Cincinnati, priority 2017, published 2020)
